# Results taken from patent publication US20180142032A1 (Sanofi, published 2018).
# Where a chain is given by its changes, count along the chain named.
# B1: huMAb1_1 (antibody, human IgG1, kappa)
# heavy: not shown
# light: DIQMTQSPSSLSASVGDRVTITCKASQDIDRYMAWYQDKPGKAPRLLIHDTSTLQSGVPSRFSGSGSGRDYTLTISNLEPEDFATYYCLQYDNLWTFGGGTKVEIKRTVAAPSVFIFPPSDEQLKSGTASVVCLLNNFYPREAKVQWKVDNALQSGNSQESVTEQDSKDSTYSLSSTLTLSKADYEKHKVYACEVTHQGLSSPVTKSFNRGEC
# notes: humanized, VH1-huIgG1 and VL1-huCk
# B2: MAb1 (antibody, mouse IgG2a, kappa)
# heavy: QVQLQQSGAELVKPGASVKMSCKASGYIFTNYNIHWVKKSPGQGLEWIGAIYPGNGDAPYSQKFKDKATLTADKSSSTTYMQLSRLTSEDSAVYYCVRANWDVAFAYWGQGTLVSVSAAKTTAPSVYPLAPVCGDTTGSSVTLGCLVKGYFPEPVTLTWNSGSLSSGVHTFPAVLQSDLYTLSSSVTVTSSTWPSQSITCNVAHPASSTKVDKKIEPRGPTIKPCPPCKCPAPNLLGGPSVFIFPPKIKDVLMISLSPIVTCVVVDVSEDDPDVQISWFVNNVEVHTAQTQTHREDYNSTLRVVSALPIQHQDWMSGKEFKCKVNNKDLPAPIERTISKPKGSVRAPQVYVLPPPEEEMTKKQVTLTCMVTDFMPEDIYVEWTNNGKTELNYKNTEPVLDSDGSYFMYSKLRVEKKNWVERNSYSCSVVHEGLHNHHTTKSFSRTPGK
# light: DIQMTQSPPSLSASLGGKVTITCKASQDIDRYMAWYQDKPGKGPRLLIHDTSTLQPGIPSRFSGSGSGRDYSFSISNLEPEDIATYYCLQYDNLWTFGGGTKLEIKRADAAPTVSIFPPSSEQLTSGGASVVCFLNNFYPKDINVKWKIDGSERQNGVLNSWTDQDSKDSTYSMSSTLTLTKDEYERHNSYTCEATHKTSTSPIVKSFNRNEC
# notes: murine monoclonal IgG, kappa, from hybridoma; also called murine MAb1
# B3: MAb2 (antibody, mouse IgG1, kappa)
# heavy: QVQLQQSAAELARPGASVKMSCKASGYTFTSYTMHWVKQRPGQGLEWIGYFNPSSGYPEYNQKFKDKTTLTADKSSNTAFIQLNSLTSEDSAVYYCSRGYYYGSRGYALDFWGQGASVTVSSAKTTPPSVYPLAPGSAAQTNSMVTLGCLVKGYFPEPVTVTWNSGSLSSGVHTFPAVLQSDLYTLSSSVTVPSSTWPSETVTCNVAHPASSTKVDKKIVPRDCGCKPCICTVPEVSSVFIFPPKPKDVLTITLTPKVTCVVVDISKDDPEVQFSWFVDDVEVHTAQTQPREEQFNSTFRSVSELPIMHQDWLNGKEFKCRVNSAAFPAPIEKTISKTKGRPKAPQVYTIPPPKEQMAKDKVSLTCMITDFFPEDITVEWQWNGQPAENYKNTQPIMDTDGSYFVYSKLNVQKSNWEAGNTFTCSVLHEGLHNHHTEKSLSHSPGK
# light: NIVLTQSPVSLAVSLGQRATISCRASESVDINGNTFMHWYQQKPGQSPKLVIYAASNIESGVPARFSGSGSSTDFTFTIDPVEADDVATYYCQQNIEDPWTFGGGTKVEIKRADAAPTVSIFPPSSEQLTSGGASVVCFLNNFYPKDINVKWKIDGSERQNGVLNSWTDQDSKDSTYSMSSTLTLTKDEYERHNSYTCEATHKTSTSPIVKSFNRNEC
# notes: murine monoclonal IgG, kappa, from hybridoma; also called murine MAb2
# B4: MAb3 (antibody, V domains shown)
# VH: QIQLVQSGPELKKPGETVKISCKASGYIFTNYGMNWVKQAPGKGLKWMGWINTYTGESRYADDFKGRFALSLETSASTAYLQINNLENEDMATYFCAREDYYGNSPWFFDVWGAGTTVTVSS
# VL: DIQMTQTTSSLSASLGDRVTISCNASQGINKYLNWYQQKPDGTVKLLIYYTSTLHSGVPSRFSGSGSGTDYSLTINNLEPEDIATYYCQQYTKLPFTFGSGTKLEIK
# notes: murine monoclonal IgG, kappa, from hybridoma; also called murine MAb3
# How the values were obtained:
# [1] = target: T1, LAMP1::histag (human, UniProt P11279 29-382); test: SPR (BIAcore 2000), mAb captured by anti-Fc, LAMP1 injected 1 to 256 nM
# T1 construct: extracellular domain without signal peptide, C-terminal 6 His tag, made in HEK293 cells; also called recombinant human LAMP1; human LAMP1 (29-382)
# T1 sequence: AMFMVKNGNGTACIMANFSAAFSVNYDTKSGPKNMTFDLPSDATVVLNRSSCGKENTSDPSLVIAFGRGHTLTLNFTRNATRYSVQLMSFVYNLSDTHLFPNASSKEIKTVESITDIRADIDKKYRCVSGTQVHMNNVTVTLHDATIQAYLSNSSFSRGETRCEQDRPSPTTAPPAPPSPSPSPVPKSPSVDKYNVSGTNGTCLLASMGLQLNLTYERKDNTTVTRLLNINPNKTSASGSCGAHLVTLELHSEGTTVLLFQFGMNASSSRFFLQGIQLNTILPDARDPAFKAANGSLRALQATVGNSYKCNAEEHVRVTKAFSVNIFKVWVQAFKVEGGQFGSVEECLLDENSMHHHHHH
# Description: The binding kinetics of the murine, chimer or humanized anti-LAMP1 mAbs were determined by surface plasmon resonance assay using a BIAcore 2000 (BIAcore Inc., Uppsala, N.J.). […] A mouse anti-αhuman Fc IgG1 (BIAcore #BR-1008-39) and rabbit anti-αmurine Fc IgG1 (BIAcore #BR-1008-38) (50 μg/mL in […], pH5) were immobilized on the activated chips in all flow cells. The immobilization was carried out at a flow rate of 10 μL/min up to saturation. The chip was then blocked by injection of 70 μL of ethanolamine-HCl, pH 8.5, followed by one wash with 3 M MgCl₂ for anti-αhuman Fc IgG1 and one wash with 10 mM Glycine-HCl pH 1.7 for anti-αmurine Fc IgG1. To measure the binding of anti-LAMP1 mAbs to LAMP1, antibodies were used at 1-5 μg/mL in BIAcore running buffer (HBS-EP). […] Following completion of the injection phase, dissociation was monitored in a BIAcore running buffer at the same flow rate for 600 sec. […] Individual sensorgrams were analyzed using BIAevaluation software.
# [2] = target: T2, recombinant human LAMP2 with a C-terminal 10 His-tag (human, UniProt P13473 29-375); test: ELISA on coated LAMP2
# T2 construct: bought; also called soluble LAMP2 protein (R&D Systems 6228-LM)
# Description: LAMP2 is the closest member of the LAMP family with 35% sequence identity to LAMP1. […] Anti-LAMP1 antibodies were added to the plates and detected by using rabbit anti-mouse IgG conjugated with horseradish peroxidase (Sigma; #A9044). Antibody binding was visualized by adding TMB-H₂O₂ buffer and read at a wavelength of 450 nm.
# [3] = target: T3, mLAMP1_hseq11_ΔGYQTI (mouse; human, UniProt P11438 25-369); test: flow cytometry, transfected 293-F cells, experiment 1
# T3 construct: on cells; numbering read as for pXL6041; also called pXL6048; not shown: murine transmembrane domain and cytoplasmic tail with GYQTI replaced by 5 Ala
# T3 chain: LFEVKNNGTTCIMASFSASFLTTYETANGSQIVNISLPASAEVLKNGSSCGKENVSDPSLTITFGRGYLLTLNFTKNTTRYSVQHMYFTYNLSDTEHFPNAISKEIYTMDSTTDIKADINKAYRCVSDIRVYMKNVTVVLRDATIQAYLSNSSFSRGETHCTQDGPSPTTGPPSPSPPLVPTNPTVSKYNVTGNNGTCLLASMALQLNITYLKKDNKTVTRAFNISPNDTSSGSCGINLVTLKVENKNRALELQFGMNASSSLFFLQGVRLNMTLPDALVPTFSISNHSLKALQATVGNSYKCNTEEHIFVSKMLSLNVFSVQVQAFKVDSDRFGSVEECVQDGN
# [4] = target: T4, mLAMP1_hseq6_ΔGYQTI (mouse; human, UniProt P11438 25-369); test: as above
# T4 construct: on cells; numbering read as for pXL6041; also called pXL6047; not shown: murine transmembrane domain and cytoplasmic tail with GYQTI replaced by 5 Ala
# T4 chain: T3 chain with Y68H, L69T, K76R, T78A, N151S, S152G, S153N, R156K, G157E
# [5] = target: T5, LAMP1_mseq3_ΔGYQTI (human; mouse); test: flow cytometry, transfected 293-F cells
# T5 construct: on cells; also called pXL6014
# [6] = target: T6, LAMP1_mseq5_ΔGYQTI (human; mouse); test: flow cytometry, transfected 293-F cells
# T6 construct: on cells; also called pXL6017
# [7] = target: T7, LAMP1_mseq2_ΔGYQTI (human; mouse); test: flow cytometry, transfected 293-F cells
# T7 construct: on cells; also called pXL6013
# [8] = target: T8, hLAMP1_ΔGYQTI (human, UniProt P11279 29-412); test: flow cytometry, transfected 293-F cells
# T8 construct: also called pXL5626
# T8 sequence: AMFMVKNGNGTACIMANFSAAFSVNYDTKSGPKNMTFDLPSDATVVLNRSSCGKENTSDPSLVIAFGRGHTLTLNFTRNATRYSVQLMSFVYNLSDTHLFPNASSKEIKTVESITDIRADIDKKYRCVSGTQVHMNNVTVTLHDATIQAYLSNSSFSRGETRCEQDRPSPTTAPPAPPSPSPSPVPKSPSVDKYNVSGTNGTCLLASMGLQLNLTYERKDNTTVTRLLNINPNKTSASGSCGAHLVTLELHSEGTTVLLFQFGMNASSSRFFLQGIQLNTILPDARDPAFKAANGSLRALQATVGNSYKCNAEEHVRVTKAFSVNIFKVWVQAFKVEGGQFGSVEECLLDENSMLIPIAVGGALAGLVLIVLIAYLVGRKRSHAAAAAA
# [9] = target: T1, LAMP1::histag; test: ELISA on secreted LAMP1
# T2 sequence (P13473 other isoform, or with tags, fused parts or gaps): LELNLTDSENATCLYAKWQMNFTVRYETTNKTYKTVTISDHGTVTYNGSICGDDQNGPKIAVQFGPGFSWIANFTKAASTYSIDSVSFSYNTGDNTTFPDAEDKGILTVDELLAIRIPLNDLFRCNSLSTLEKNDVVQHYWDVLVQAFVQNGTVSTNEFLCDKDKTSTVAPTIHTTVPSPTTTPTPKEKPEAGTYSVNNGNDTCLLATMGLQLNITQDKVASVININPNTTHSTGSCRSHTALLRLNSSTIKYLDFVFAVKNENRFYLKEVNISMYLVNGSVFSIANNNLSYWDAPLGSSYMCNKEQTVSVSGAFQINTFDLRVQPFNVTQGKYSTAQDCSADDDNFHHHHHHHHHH
Binder,Kd [1],binding result [2],binding result [3],mean fluorescence [3],binding result [4],mean fluorescence [4],mean fluorescence [5],mean fluorescence [6],mean fluorescence [7],mean fluorescence [8],EC50 [9]
B1,8.2 nM,,,,,,,,,,
B2,4.8 nM,no binding,no binding,6,no binding,7,888,846,990,914,~0.2 nM
B3,63.5 nM,no binding,no binding,28,no binding,25,694,629,694,757,~0.3 nM
B4,4.7 nM,no binding,,,,,674,721,803,749,
